Where two headings read alike, the source gives them in different places.
Key:
[1] = target: T1, recombinant human ErbB3/Fc fusion protein (human, UniProt P21860 20-643); test: ECL (MSD) competition: rhErbB3/Fc coated on the plate, antibody dilutions, then NRG1-β1 at 0.25 µg/ml; bound NRG1-β1 detected
T1 construct: Bought (R&D Systems, Cat. No. 348-RB); the NRG1-α1 assay names Cat. No. 4518-RB instead; also called rhErbB3-Fc; rhErbB3/Fc; not shown: Fc portion of the bought fusion protein

[2] = target: T1, recombinant human ErbB3/Fc fusion …; test: ECL competition; inhibition of NRG1-β1 binding to plate-coated rhErbB3/Fc
Description: (§1) Multi-array 96-well standard binding plates (Meso Scale Discovery, Cat. No. L15XA-3) were coated with 50 μl of 0.5 μg/mL rhErbB3/Fc (R&D systems, Cat. No. 348-RB) in PBS (Invitrogen, Cat. No. 14040-133) for one hour at room temperature with no agitation. The plates then were washed three times with PBS+0.1% Tween20 (Sigma P5927) and blocked with 200 μl of 100% Horse Serum, heat inactivated (GIBCO, Cat. No. 26050-088) for 1.5 hours at room temperature. After washing the plates three times with PBS+0.1% Tween, 25 μl of the antibody dilutions were added to the plates for another hour at room temperature with agitation. […] The plates then were washed three times with PBS+0.1% Tween, and 150 μl of 1× read buffer (Meso Scale Discovery, Cat. No. R92TC-1) was added to each well before the plates were analyzed on a Sector® Imager 2400 (Meso Scale Discovery) instrument.

[3] = target: T2, recombinant human ErbB3 monomeric protein (cleaved rhErbB3) (human, UniProt P21860 20-643, limits assumed); test: SPR Biacore 37 C; antibody captured on anti-human Fc, cleaved rhErbB3 (monomer) injected
T2 construct: Monomer made by protease cleavage of the Fc fusion; also called Monomeric ErbB3

human ErbB3 [4] = target: T3, human ErbB3 (human, UniProt P21860 20-1342); test: cell-based or functional assay
[5] = target: T2, recombinant human ErbB3 monomeric …; test: SPR Biacore 37 C; purified antibody captured on anti-human Fc, cleaved rhErbB3 0.3125-5.0 nM
Description: The analyses were performed at 37° C. using PBS (Invitrogen, Catalog No. 14040-133) containing 0.05% surfactant P20 (Biacore, Catalog No. BR-1000-54) as running buffer.
The antibodies were captured in individual flow cells at a flow rate of […]. Injection time was varied for each antibody to yield an Rₘₐₓ between 30 and 60 RU. […] The dissociation phase was monitored for up to 1200 seconds. The surface was then regenerated with two 60 second injections of Glycine pH 2.25 (made from Glycine pH 2.0 (Biacore, Catalog No. BR-1003-55) and pH 2.5 (Biacore, Catalog No. BR-1003-56)) at […].
The binding affinities and kinetics of certain purified monoclonal antibodies were also determined. To further characterize certain antibodies, the surface plasmon resonance experiments described above were conducted using concentrations of cleaved rhErbB3 between 0.3125 nM and 5.0 nM (a 2-fold serial dilution).

[6] = target: T1, recombinant human ErbB3/Fc fusion …; test: ECL (MSD) competition: rhErbB3/Fc coated on the plate, antibody dilutions, then NRG1-β1 at 0.25 µg/ml; bound NRG1-β1 detected; remark: listed apart in the source
Description: as §1

[7] = target: T1, recombinant human ErbB3/Fc fusion …; test: ECL (MSD): NRG1-β1 (0.25 µg/ml) binding to plate-coated rhErbB3/Fc after antibody dilutions; the antibody enhances the NRG1-β1 signal
Description: MA2400 96-well standard binding plates (Meso Scale Discovery, Cat. No. L15XA-6) were coated with 50 μl of 0.5 μg/mL rhErbB3/Fc (R&D systems, Cat. No. 348-RB) in PBS (Invitrogen, Cat. No. 14040-133) for overnight at 4° C. with no agitation. The plates then were washed 3 times with PBS+0.1% Tween20 (Sigma P5927) and blocked with 200 μl of PBS containing 5% BSA (Sera Care Life Sciences, Cat. No. AP-4510-80) for 1.5 hour at room temperature. After washing the plates 3 times with PBS, 25 μl of the antibody dilutions were added to the plates for another hour at room temperature with agitation. […] The plates then were washed 3 times with PBS, and 150 μl of 1× read buffer (Meso Scale Discovery, Cat. No. R92TC-1) was added to each well before the plates were analyzed on a Sector® Imager 2400 (Meso Scale Discovery) instrument.

human ErbB3 [8] = target: T3, human ErbB3; test: cell-based or functional assay; remark: listed apart in the source
[9] = target: T1, recombinant human ErbB3/Fc fusion …; test: SPR Biacore T100, 25 C; antibody captured on anti-mouse IgG, rhErbB3-Fc injected
Description: Rabbit anti-mouse IgGs (Biacore, Cat. No. BR-1008-38) were immobilized on carboxymethylated dextran CM4 sensor chips (Biacore, Cat. No. BR-1005-34) by amine coupling (BIAcore, Cat. No. BR-1000-50) using a standard coupling protocol according to vendor's instructions. The analyses were performed at 25° C., using PBS (Invitrogen, Cat. No. 14040-133) containing 0.05% surfactant P20 (Biacore, Cat. No. BR-1000-54) as running buffer.
The antibodies were captured in individual flow cells at a flow rate of 10 μl/minute. Injection time was varied for each antibody to yield an Rₘₐₓ between 30 and 60 RU. […] The dissociation phase was monitored for up to 3600 seconds. The surface was then regenerated with two 60-seconds injection of 10 mM Glycine-HCl, pH 1.7 (made from Glycine pH 1.5 (Biacore, Cat. No. BR-1003-54) and pH 2.0 (Biacore, Cat. No. BR-1003-55)) at a flow rate of […].
Kinetic parameters were determined using the kinetic function of the BIAevaluation software (Biacore) with double reference subtraction. Kinetic parameters for each antibody, kₐ (association rate constant), kd (dissociation rate constant) and KD (equilibrium dissociation constant) were determined.

Binder	IC50 (read off the curve) [1] [nM]	IC50 [2] [nM]	Kd [3] [nM]	koff [3] [s⁻¹]	kon [3] [M⁻¹ s⁻¹]	inhibition of phosphorylation of ErbB3 in exponentially growing SKBR-3 cells (ELISA) (human ErbB3 [4]) [%]	Kd [5] [nM]	koff [5] [s⁻¹]	kon [5] [M⁻¹ s⁻¹]	IC50 (read off the curve) [6] [nM]	EC50 (read off the curve) [7] [nM]	IC50, NRG1-β1 dependent proliferation of MCF7 cells (MTT) (human ErbB3 [8]) [nM]	inhibition of NRG1-β1 induced phosphorylation of Akt in MCF7 and DU145 cells (ELISA) (human ErbB3 [4]) [%]	inhibition of NRG1-β1 induced phosphorylation of ErbB3 in SKBR-3 cells (ELISA, 5 µg/ml antibody) (human ErbB3 [4]) [%]	Kd [9] [nM]	koff [9] [s⁻¹]	kon [9] [M⁻¹ s⁻¹]
U1-53 (antibody, V domains shown) VH: EVQLVESGGGLVQPGGSLRLSCAASGFTFSIYSMNWVRQAPGKGLEWVSYISSSSSTIYYADSVKGRFTISRDNAKNSLYLQMNSLRDEDTAVYYCARDRGDFDAFDIWGQGTMVTVSS VL: DIQMTQSPSSLSASVGDRVTITCQASQDITNYLNWYQQKPGKAPKLLIYDASNLETGVPSRFSGSGSGTDFTFTISSLQPEDIATYNCQQCENFPITFGQGTRLEIK	~0.1	0.113															
Sh24C05-31 N62S IgG1 (antibody, Humanized, human IgG1/kappa) heavy: not shown light: DIQMTQSPSSLSASVGDRVTITCRASQEISGYLSWYQQKPGKAPKRLIYAASTLDSGVPSRFSGSGSGTEFTLTISSLQPEDFATYYCLQYDSYPYTFGQGTKLEIKRTVAAPSVFIFPPSDEQLKSGTASVVCLLNNFYPREAKVQWKVDNALQSGNSQESVTEQDSKDSTYSLSSTLTLSKADYEKHKVYACEVTHQGLSSPVTKSFNRGEC		0.124	0.076	0.00027	3.5e+06	≥ 50	0.076	0.00027	3.5e+06	~0.1							
Sh24C05-25 N62S IgG2 (antibody, Humanized, human IgG2/kappa) heavy: QVQLVESGGGLVKPGGSLRLSCAASGFTFSDYAMSWIRQAPGKGLEWVSTISDGGTYTYYPDSVKGRFTISRDNAKNSLYLQMNSLRAEDTAVYYCAREWGDYDGFDYWGQGTLVTVSSASTKGPSVFPLAPCSRSTSESTAALGCLVKDYFPEPVTVSWNSGALTSGVHTFPAVLQSSGLYSLSSVVTVPSSNFGTQTYTCNVDHKPSNTKVDKTVERKCCVECPPCPAPPVAGPSVFLFPPKPKDTLMISRTPEVTCVVVDVSHEDPEVQFNWYVDGVEVHNAKTKPREEQFNSTFRVVSVLTVVHQDWLNGKEYKCKVSNKGLPAPIEKTISKTKGQPREPQVYTLPPSREEMTKNQVSLTCLVKGFYPSDIAVEWESNGQPENNYKTTPPMLDSDGSFFLYSKLTVDKSRWQQGNVFSCSVMHEALHNHYTQKSLSLSPGK light: DIQMTQSPSSLSASVGDRVTITCRASQEISGYLSWFQQKPGKAPKSLIYAASTLDSGVPSRFSGSGSGTDFTLTISSLQPEDFATYYCLQYDSYPYTFGQGTKLEIKRTVAAPSVFIFPPSDEQLKSGTASVVCLLNNFYPREAKVQWKVDNALQSGNSQESVTEQDSKDSTYSLSSTLTLSKADYEKHKVYACEVTHQGLSSPVTKSFNRGEC		0.112				≥ 50	0.12	0.00034	2.7e+06	~0.1							
Sh24C05-31 N62S IgG2 (antibody, Humanized, human IgG2/kappa) heavy: QVQLVESGGGLVKPGGSLRLSCAASGFTFSDYAMSWIRQAPGKGLEWVSTISDGGTYTYYPDSVKGRFTISRDNAKNSLYLQMNSLRAEDTAVYYCAREWGDYDGFDYWGQGTLVTVSSASTKGPSVFPLAPCSRSTSESTAALGCLVKDYFPEPVTVSWNSGALTSGVHTFPAVLQSSGLYSLSSVVTVPSSNFGTQTYTCNVDHKPSNTKVDKTVERKCCVECPPCPAPPVAGPSVFLFPPKPKDTLMISRTPEVTCVVVDVSHEDPEVQFNWYVDGVEVHNAKTKPREEQFNSTFRVVSVLTVVHQDWLNGKEYKCKVSNKGLPAPIEKTISKTKGQPREPQVYTLPPSREEMTKNQVSLTCLVKGFYPSDIAVEWESNGQPENNYKTTPPMLDSDGSFFLYSKLTVDKSRWQQGNVFSCSVMHEALHNHYTQKSLSLSPGK light: DIQMTQSPSSLSASVGDRVTITCRASQEISGYLSWYQQKPGKAPKRLIYAASTLDSGVPSRFSGSGSGTEFTLTISSLQPEDFATYYCLQYDSYPYTFGQGTKLEIKRTVAAPSVFIFPPSDEQLKSGTASVVCLLNNFYPREAKVQWKVDNALQSGNSQESVTEQDSKDSTYSLSSTLTLSKADYEKHKVYACEVTHQGLSSPVTKSFNRGEC		0.086				≥ 50	0.074	0.00024	3.2e+06	~0.1							
09D03 (antibody, mouse IgG2b, kappa, V domains shown, Murine IgG2b/kappa, from hybridoma; also called anti-hErbB3 monoclonal antibody 09D03) VH: QVTLKESGPGILRPSQTLSLTCSFSGFSLSTFGLSVGWIRQPSGKGLEWLAHIWWDDDKYYNPALKSRLTISKDTSKNQVFLKIANVDTADTATYYCARIGADALPFDYWGQGTTLTVSS VL: DIVLTQTAPSVPVTPGESVSISCRSSKSLLHSNGNTYLYWFLQRPGQSPQLLIYRMSNLASGVPDRFSGSGSGTAFTLRISRVEAEDVGVYYCMQHLEYPFTFGSGTKLEIKR											~1	2.28	≥ 80	≥ 50	0.08	2e-05	270000

Reference: US20180030149A1 (AVEO PHARMACEUTICALS, published 2018)
